Assay results reported in article PMC7205207, “Modeling and mitigation of high-concentration antibody viscosity through structure-based computer-aided protein design” (PLoS ONE, 2020).
Positions count from the first letter of the chain named. Numbers in names are those of the source.

How the values were obtained:
[1] = AC-SINS; self-association assay, as in Avery et al. [35]; score = smoothed max absorbance of the antibody sample minus that of the average blank (PBS); scores >=11 considered high; details: other: AC-SINS
[2] = target: T1, human PDGF-BB (platelet derived growth factor B homodimer) (human, UniProt P01127 82-190); assay: SPR; Biacore T200, full kinetics; antibody captured by anti-human IgG on a CM5 chip; human PDGF-BB at 20, 10, 5, 2.5 and 1.25 nM, 50 s injection; HBS-EP+ N; 25 C; 1:1 Langmuir fit; details: both partners purified
T1 construct: Platelet derived growth factor B, human, homodimer, bought from PeproTech; the printed catalogue number may stand for 100-14B; source: bought: PeproTech, Catalog 100-148

[3] = target: T1, human PDGF-BB (platelet derived growth …); assay: SPR; Biacore T200, off-rate screen; antibody captured (~70 to 100 RU) by anti-human IgG amine-coupled to a CM5 chip; human PDGF-BB injected at a single 2.5 nM for 170 s, dissociation 300 s; HBS-EP+ N (10 mM HEPES, 500 mM NaCl, 3 mM EDTA, 0.05% Tween20, pH 7.4); 25 C; details: both partners purified
[4] = target: T2, human PDGF-BB (platelet derived growth factor B homodimer) (human, UniProt P01127); assay: as above; details: both partners purified
T2 construct: Platelet derived growth factor B, human, homodimer, bought from PeproTech; the printed catalogue number may stand for 100-14B; source: bought: PeproTech, Catalog 100-148

[5] = AC-SINS; self-association assay, as in Avery et al. [35]; score = smoothed max absorbance of the antibody sample minus that of the average blank (PBS); scores >=11 considered high; details: other: AC-SINS; remark: listed apart in the source
[6] = target: T2, human PDGF-BB (platelet derived growth …); assay: SPR; Biacore T200, full kinetics; antibody captured by anti-human IgG on a CM5 chip; human PDGF-BB at 20, 10, 5, 2.5 and 1.25 nM, 50 s injection; HBS-EP+ N; 25 C; 1:1 Langmuir fit; details: both partners purified
[7] = target: T2, human PDGF-BB (platelet derived growth …); assay: as above; details: both partners purified; remark: listed apart in the source

T1 sequence (P01127 82-190): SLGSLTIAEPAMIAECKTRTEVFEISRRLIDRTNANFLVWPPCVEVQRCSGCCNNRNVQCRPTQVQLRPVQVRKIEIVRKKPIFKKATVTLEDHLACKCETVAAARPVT
T2 sequence (P01127 82-190): as above

B1: AB-001 (antibody, V domains shown)
VH: EVQLLESGGGLVQPGGSLRLSCAASGFTFSSYAMSWVRQAPGKGLEWVSYISDDGSLKYYADSVKGRFTISRDNSKNTLYLQMNSLRAEDTAVYYCAKHPYWYGGQLDLWGQGTLVTVSS
VL: SYELTQPPSVSVSPGQTASITCSGDSLGSYFVHWYQQKPGQSPVLVIYDDSNRPSGIPERFSGSNSGNTATLTISGTQAMDEADYYCSAFTHNSDVFGGGTKLTVL
notes: VH of AB-001; VL of AB-001; only the variable regions are written; also called parental AB-001; parental clone; source: HEK293, transient, purified from conditioned medium (protein A, TMAE, HIC)
Q: Which results are given for B1?
A: AC-SINS Score [1]: 22; Kd [2]: 0.0948 ± 0.0292 nM; koff [2]: 0.000457 s⁻¹; kon [2]: 5.05e+06 M⁻¹ s⁻¹; koff [3]: 0.000319 s⁻¹

B2: R2-018 (antibody, V domains shown)
VH: B1 VH with E6Q, Q13K, K98R
VL: B1 VL with E3V, S13A, Q16K, S19R, D25N, N52K
notes: as the VH of m20 (R2-001_HC); as the VL of m20 (R2-001_LC) with D26N (Kabat); only the variable regions are written; source: HEK293, transient, purified from conditioned medium (protein A, TMAE, HIC)
Q: With B2 as the binder, how does the koff [4] read?
A: 0.000386 s⁻¹

B3: R2-014 (antibody, V domains shown)
VH: B1 VH with E6Q, Q13K, D54Q, K98R
VL: B1 VL with E3V, S13A, Q16K, S19R, N52K
notes: as the VH of m20 (R2-001_HC) with D53Q; as the VL of m20 (R2-001_LC); only the variable regions are written; source: HEK293, transient, purified from conditioned medium (protein A, TMAE, HIC)
Q: For B3, which koff [4] is on record?
A: 0.000396 s⁻¹

B4: R2-015 (antibody, V domains shown)
VH: B1 VH with E6Q, Q13K, D62N, K98R
VL: B1 VL with E3V, S13A, Q16K, S19R, N52K
notes: as the VH of m20 (R2-001_HC) with D61N; as the VL of m20 (R2-001_LC); only the variable regions are written; source: HEK293, transient, purified from conditioned medium (protein A, TMAE, HIC)
Q: Which koff [4] does the source give for B4 here?
A: 0.000834 s⁻¹

B5: R2-012 (antibody, V domains shown)
VH: B1 VH with E6Q, Q13K, D53K, K98R
VL: B1 VL with E3V, S13A, Q16K, S19R, N52K
notes: as the VH of m20 (R2-001_HC) with D52aK; as the VL of m20 (R2-001_LC); only the variable regions are written; source: HEK293, transient, purified from conditioned medium (protein A, TMAE, HIC)
Q: With B5 as the binder, how does the koff [4] read?
A: 0.000347 s⁻¹

B6: R2-022 (antibody, V domains shown)
VH: B1 VH with E6Q, Q13K, K98R
VL: B1 VL with E3V, S13A, Q16K, S19R, N52K, D95N
notes: as the VH of m20 (R2-001_HC); as the VL of m20 (R2-001_LC) with D96N (Kabat); only the variable regions are written; source: HEK293, transient, purified from conditioned medium (protein A, TMAE, HIC)
Q: With B6 as the binder, how does the koff [4] read?
A: 0.000361 s⁻¹

B7: R2-001 (antibody, V domains shown)
VH: B1 VH with E6Q, Q13K, K98R
VL: B1 VL with E3V, S13A, Q16K, S19R, N52K
notes: R2-001_HC: as the VH of m17 (R1-016), on which R2-001 was built; R2-001_LC: as the VL of m17 (R1-016) with FW1 changed to that of IGLV3-21*01; only the variable regions are written; also called round 2 parental R2-001; R2-001_HC with R2-001_LC; source: HEK293, transient, purified from conditioned medium (protein A, TMAE, HIC)
Q: What does the source list for B7?
A: AC-SINS Score [5]: 24; Kd [6]: 0.102 ± 0.0323 nM; koff [6]: 0.000292 s⁻¹; kon [6]: 3.09e+06 M⁻¹ s⁻¹; koff [4]: 0.000417 s⁻¹

B8: R2-013 (antibody, V domains shown)
VH: B1 VH with E6Q, Q13K, D53N, K98R
VL: B1 VL with E3V, S13A, Q16K, S19R, N52K
notes: as the VH of m20 (R2-001_HC) with D52aN; as the VL of m20 (R2-001_LC); only the variable regions are written; source: HEK293, transient, purified from conditioned medium (protein A, TMAE, HIC)
Q: Which koff [4] does the source give for B8 here?
A: 0.000344 s⁻¹

B9: R1-016 (antibody, V domains shown)
VH: B1 VH with E6Q, Q13K, K98R
VL: B1 VL with N52K
notes: only the variable regions are written; source: HEK293, transient, purified from conditioned medium (protein A, TMAE, HIC)
Q: With B9 as the binder, how does the AC-SINS Score [5] read?
A: 24

Q: What about the Kd [6] of the same binder?
A: 0.0743 ± 0.0137 nM

Q: What about the koff [6] of the same binder?
A: 0.000357 s⁻¹

Q: And the kon [6]?
A: 4.88e+06 M⁻¹ s⁻¹

Q: And the koff [4]?
A: 0.000289 s⁻¹

B10: R2-019 (antibody, V domains shown)
VH: B1 VH with E6Q, Q13K, K98R
VL: B1 VL with E3V, S13A, Q16K, S19R, D49L, N52K
notes: as the VH of m20 (R2-001_HC); as the VL of m20 (R2-001_LC) with D50L (Kabat); only the variable regions are written; source: HEK293, transient, purified from conditioned medium (protein A, TMAE, HIC)
Q: With B10 as the binder, how does the koff [4] read?
A: 0.000673 s⁻¹

B11: R2-011 (antibody, V domains shown)
VH: B1 VH with E6Q, Q13K, K98R, Q106K
VL: B1 VL with E3V, S13A, Q16K, S19R, N52K
notes: as the VH of m20 (R2-001_HC) with Q100bK; as the VL of m20 (R2-001_LC); only the variable regions are written; source: HEK293, transient, purified from conditioned medium (protein A, TMAE, HIC)
Q: For B11, which koff [4] is on record?
A: 0.000414 s⁻¹

B12: R2-020 (antibody, V domains shown)
VH: B1 VH with E6Q, Q13K, K98R
VL: B1 VL with E3V, S13A, Q16K, S19R, D50N, N52K
notes: as the VH of m20 (R2-001_HC); as the VL of m20 (R2-001_LC) with D51N (Kabat); only the variable regions are written; source: HEK293, transient, purified from conditioned medium (protein A, TMAE, HIC)
Q: With B12 as the binder, how does the AC-SINS Score [5] read?
A: 4

Q: What about the Kd [6] of the same binder?
A: 0.299 ± 0.00683 nM

Q: And the koff [6]?
A: 0.00061 s⁻¹

Q: What about the kon [6] of the same binder?
A: 2.04e+06 M⁻¹ s⁻¹

Q: What about the koff [4] of the same binder?
A: 0.000386 s⁻¹

B13: R2-016 (antibody, V domains shown)
VH: B1 VH with E6Q, Q13K, K98R, D108N
VL: B1 VL with E3V, S13A, Q16K, S19R, N52K
notes: as the VH of m20 (R2-001_HC) with D101N; as the VL of m20 (R2-001_LC); only the variable regions are written; source: HEK293, transient, purified from conditioned medium (protein A, TMAE, HIC)
Q: For B13, which koff [4] is on record?
A: 0.000266 s⁻¹

B14: R2-017 (antibody, V domains shown)
VH: B1 VH with E6Q, Q13K, K98R, D108Y
VL: B1 VL with E3V, S13A, Q16K, S19R, N52K
notes: as the VH of m20 (R2-001_HC) with D101Y; as the VL of m20 (R2-001_LC); only the variable regions are written; source: HEK293, transient, purified from conditioned medium (protein A, TMAE, HIC)
Q: Which koff [4] does the source give for B14 here?
A: 0.000673 s⁻¹

B15: R2-006 (antibody, V domains shown)
VH: B1 VH with E6Q, Q13K, K98R
VL: B1 VL with E3V, S13A, Q16K, S19R, S51K, N52K
notes: as the VH of m20 (R2-001_HC); as the VL of m20 (R2-001_LC) with S52K (Kabat); only the variable regions are written; source: HEK293, transient, purified from conditioned medium (protein A, TMAE, HIC)
Q: With B15 as the binder, how does the AC-SINS Score [5] read?
A: 25

Q: And the Kd [7]?
A: 0.103 nM

Q: What about the Kd [6] of the same binder?
A: 0.0888 ± 0.0295 nM

Q: And the koff [6]?
A: 0.000336 s⁻¹

Q: What about the kon [6] of the same binder?
A: 3.97e+06 M⁻¹ s⁻¹

Q: And the koff [4]?
A: 0.000366 s⁻¹
